Results as given in publication PMC9600179.

Target: T1, AlgR (Pseudomonas aeruginosa PAO1) (UniProt P26275)
T1 sequence: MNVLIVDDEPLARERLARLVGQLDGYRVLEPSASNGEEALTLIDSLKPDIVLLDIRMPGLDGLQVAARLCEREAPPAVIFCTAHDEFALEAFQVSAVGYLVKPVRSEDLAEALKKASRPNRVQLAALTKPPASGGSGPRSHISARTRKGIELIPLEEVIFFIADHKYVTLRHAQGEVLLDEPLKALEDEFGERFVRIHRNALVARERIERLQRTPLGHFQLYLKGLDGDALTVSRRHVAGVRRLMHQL
Assay: EMSA
Conditions: EMSA: 10 mM Tris-HCl pH 7.4, 50 mM KCl, 5 mM MgCl2, 10% glycerol, 30 min, temperature not stated; 1 ug DIDC (poly dI-dC) with FITC probes in some assays …

| Sequence | binding |
| --- | --- |
| GTACCTCGTCCGGCTCGGCGTCGGCGGTATAGCCGAGGATCAGGATCGGCGCGCGTCGCTCGCACCGTTCCTGGATGCGTATCCTGCGTGCCAGCTGATAGCCGTTCAGGCGCGGCATGTTGCAGTCGCTGATCAGCACCTCGAAGCGCTCGTCGGCCCAGAGCTCCAGCGCCA (double strand) [rocsS2 CDS fragment] | binds |
| CGGGTCTTCGTAGGCGTAGCGGGTGCTGCCGGCCGGGCCGCGCACCGTCGTCGCATTGCCCCGTTCGTCGCGCTCGAAGGTCCAGCGGCGCTGCATCGCGTCCTCCAGCTCGACCAGCAGCCCGGTCTCTTCGTCGACGCGCTTGCGATAGCGCGCCTTGCCCGGCGACTCCTCCTCGAGC (double strand) [tse5 CDS fragment] | binds |
| CTGGCGATGGAAGGCACTCCAATCGAGGTCCGCAGGGCCGACCAGCGCGTCCAGCGAGAAATCGTCGAGCAAAGGGCGTCCGGCGGCCGCACGCAGGGTCAACGGCGCCAAAGGACCGCTCAGCGACGGTGCATCGGCTTCACGCACCACCAGGCTGGCCTGGCAGTCGGCAGCGATATCGGCCAGGGCCTGCTCGCGGGACTT (double strand) [pqsA CDS fragment] | binds |
